Source: US20260356933 (published 2026)
Substitutions are numbered along the chain they refer to.

B1: SIL-2D8 (antibody, V domains shown)
VH: EVQLVESGGGLVQAGGSLRLSCTASGHNADTYAMGWFRQAPGKEREFVTGISWTGVGTYIADSVKGRFTISRDNAKNTVYLQMNSLKPEDTAVYRCAAGSDYSDSHYDKSYEYDYWGQGTQVTVSS
B2: SIL-2F5 (antibody, V domains shown)
VH: B1 VH with T23A, H27R, N28A, A40S, K43S, E44R, V56S, I60Y, N74T, R95Y
B3: SIL-2E4 (antibody, V domains shown)
VH: EVQLVESGGGLVQPGGSLRLSCAASGSIFDDHAIGWFRQAPGKEREGVSSIMTSDDSTHYADSVKGRFTISRDKAKNTVYLQMNNLKPEDTAVYYCAATDVFGLQYSSFLKSYEYDYWGQGTQVTVSS
B4: SIL-3B6 (antibody, V domains shown)
VH: B3 VH with I70V, N85D
B5: SIL-3B7 (antibody, V domains shown)
VH: EVQLVESGGGLVQAGGSLRLSCAASARTFSNYAMGWFRQAPGKEREFVAGISWSGGYTSYADSVKGRFTISRDNAKNTVALEMNSLKPEDTAVYYCAAEGVIDELPIKTMRYEYDYWGQGTQVTVSS
B6: SIL-3E7 (antibody, V domains shown)
VH: EVQLVESGGGLVQAGGSLRLSCAASARTFSNYALGWFRQVPGKEREFVAGITWSGDNTYYADSVKDRFTISRDNAKNTVWLQMNSLRPEDTAVYICAAEAVLEDKVAVSTMRYEYDYWGQGTQVTVSS
B7: SIL-2E7 (antibody, V domains shown)
VH: EVQLVESGGGLVQAGGSLRLSCAASGRTFSKNTMGWFRQAPGKEREFVAAISWSVGSTYYGDSVNGRFTISRDDAKNTVYLQMNSLKPEDTAIYYCAADSSHYMLHPELREYDYWGQGTQVTVSS
B8: SIL-2D1 (antibody, V domains shown)
VH: EVQLVESGGGSVQPGGSLRLSCAASGFTLADESSGWFRQAPGKEREGVSCISITDGITYYADSVKGRFTISRDNAKNTLYLQMNSLKPEDTAVYYCATGNPYCSGHAGTEYDDWGQGTQVTVSS

Biological target: IL6 (human, UniProt P05231)
Assay: ELISA, apparent

Chain of IL6 (P05231 30-212): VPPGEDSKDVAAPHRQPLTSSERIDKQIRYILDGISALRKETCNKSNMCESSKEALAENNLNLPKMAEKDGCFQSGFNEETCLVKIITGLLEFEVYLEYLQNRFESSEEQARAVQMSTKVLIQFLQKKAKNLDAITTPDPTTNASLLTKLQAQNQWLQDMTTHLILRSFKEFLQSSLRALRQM

| Kd | Binder |
| --- | --- |
| 5 nM | B1 |
| 1 nM | B2 |
| > 1000 nM | B3 |
| 20 nM | B4 |
| > 1000 nM | B5 |
| > 1000 nM | B6 |
| 2 nM | B7 |
| 80 nM | B8 |
